In assay [1] the target is T1, colFD-NL.
T1 chain: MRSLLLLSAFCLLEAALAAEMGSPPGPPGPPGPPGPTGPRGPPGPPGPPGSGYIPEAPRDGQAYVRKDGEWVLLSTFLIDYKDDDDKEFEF
Kind of assay: BRET. Conditions: chain shown with the change; in the ER of HEK293 cells; n = 4; parent: est. 100; read off a plot. (In BRET a luciferase serves as donor, and the signal depends on an acceptor being close.)

In assay [2] the target is T1, colFD-NL. Kind of assay: BRET. Particulars: chain shown with the change; in the ER of HEK293 cells; n = 4; parent: est. 100; read off a plot.
Assay [3] concerns the target Collagen (pig's skin type I-C (Nitta Gelatin Inc.)) (pig). In words: SPR; Biacore T200; collagen amine-coupled to a CM5 chip (∼2,000 response units), rmHsp47 injected; 10 mM HEPES, 0.15 M NaCl, 0.05% surfactant P20, pH 7.4; 25 °C; kobs linearization method (Anabel). A general note: In SPR one partner is held on a chip, and binding of the other changes the refractive index at the surface.

Assay [4] deals with colFD-NL (bacteriophage T4). In words: FRET or BRET; NanoBRET in the ER of living, transiently transfected HEK293 cells; colFD-NL (NanoLuc) donor, Hsp47-HT with HT ligand 618 (20-100 nM) acceptor; cells washed, furimazine added, 37 °C; BRET ratio 618/460 nm (mBU); some panels with Col003 and derivatives (2 h) or α,α-dipyridyl; the cell line is not named for every panel.
Assay [5] has as its target colFD-NL (bacteriophage T4). Kind of assay: FRET or BRET; NanoBRET in the ER of living, transiently transfected HeLa cells; colFD-NL donor, Hsp47-HT with HT ligand 618 acceptor; 37 °C.

Here are results for 5 molecules from PMC6827286.

Positions count from the first letter of the chain named. Names may count otherwise.

B1: Hsp47-HT, P19324 I352A (protein)
chain: AEVKKPLEAAAPGTAEKLSSKATTLAERSTGLAFSLYQAMAKDQAVENILLSPLVVASSLGLVSLGGKATTASQAKAVLSAEKLRDEEVHTGLGELLRSLSNSTARNVTWKLGSRLYGPSSVSFADDFVRSSKQHYNCEHSKINFRDKRSALQSINEWASQTTDGKLPEVTKDVERTDGALLVNAMFFKPHWDEKFHHKMVDNRGFMVTRSYTVGVTMMHRTGLYNYYDDEKEKLQMVEMPLAHKLSSLIILMPHHVEPLERLEKLLTKEQLKAWMGKMQKKAVAISLPKGVVEVTHDLQKHLAGLGLTEAIDKNKADLSRMSGKKDLYLASVFHATAFEWDTEGNPFDQDAYGREELRSPKLFYADHPFIFLVRDNQSGSLLFIGRLVRPKGDKMRDEL
On to B1, for which the percent of parent in the assay with colFD-NL [1] was 85%; with colFD-NL [2], 86%.

B2: recombinant mouse Hsp47 (rmHsp47) Y353A (natural protein)
chain: B1 chain with A352I, Y353A
What is called Kd is a measure of binding affinity in units of concentration. A low value points to tighter binding. In assay [3], B2 had a Kd of 3.6 µM.

B3: Hsp47-HT (natural protein)
chain: B1 chain with A352I
modifications: HaloTag fluorescent ligand 618 on the HaloTag
On to B3, for which, in assay [4], the BRET ratio (donor to acceptor 1:50, HEK293) came to 40 mBU. Also, the BRET ratio (donor to acceptor 1:100, HeLa) in assay [5] amounted to 25 mBU.

B4: recombinant mouse Hsp47 (rmHsp47) I352A (natural protein)
chain: B1 chain
With B4, the Kd in assay [3] was determined as 3.3 µM.

B5: recombinant mouse Hsp47 (rmHsp47) WT (natural protein)
chain: B1 chain with A352I
As for B5, the Kd in assay [3] was 1.5 µM.
